Source: article PMC12618258, “The human ribosome modulates multidomain protein biogenesis by delaying cotranslational domain docking” (Nature Structural & Molecular Biology, 2025)

Molecular target: the molecule itself
Experiment: SEC-MALS; 100 μl of Ns at 0.1 or 0.2 mg/ml (~5 or 10 µM) on Superdex 200 10/30 increase GL; 20 mM HEPES pH 7.5, 100 mM KCl, 5 mM magnesium acetate, 200 mM arginine-HCl, 1 mM DTT, 2 mM sodium azide

B1: isolated Ns (isoNs, residues 1–190) of firefly luciferase (domain or fragment, UniProt P08659 1-190, looked up)
chain: MEDAKNIKKGPAPFYPLEDGTAGEQLHKAMKRYALVPGTIAFTDAHIEVNITYAEYFEMSVRLAEAMKRYGLNTNHRIVVCSENSLQFFMPVLGALFIGVAVAPANDIYNERELLNSMNISQPTVVFVSKKGLQKILNVQKKLPIIQKIIIMDSKTDYQGFQSMYTFVTSHLPPGFNEYDFVPESFDRDK
notes: firefly luciferase (FLuc, 550 residues), UniProt Q27758_PHOPY, residues 1-190 (Ns subdomain), off the ribosome; The truncations carried an N-terminal His-SUMO tag; The printed monomer mass of ~21.5 kDa fits the cleaved fragment; source: E. coli BL21, purified (HisTrap, Ulp1 cleavage, reverse IMAC, Superdex gel filtration); not shown: His, N-terminal, cleaved; SUMO, N-terminal, cleaved
stoichiometry N: 2
